According to paper PMC7511445 (Journal of immunology (Baltimore, Md. : 1950), 2020):
Substitutions are numbered along the chain they refer to. In names and notes the source's numbering stands.

B1: phosphorylated full-length human IRF-3 E388A (natural protein, UniProt Q14653 1-427, looked up)
chain: MGTPKPRILPWLVSQLDLGQLEGVAWVNKSRTRFRIPWKHGLRQDAQQEDFGIFQAWAEATGAYVPGRDKPDLPTWKRNFRSALNRKEGLRLAEDRSKDPHDPHKIYEFVNSGVGDFSQPDTSPDTNGGGSTSDTQEDILDELLGNMVLAPLPDPGPPSLAVAPEPCPQPLRSPSLDNPTPFPNLGPSENPLKRLLVPGEEWEFEVTAFYRGRQVFQQTISCPEGLRLVGSEVGDRTLPGWPVTLPDPGMSLTDRGVMSYVRHVLSCLGGGLALWRAGQWLWAQRLGHCHTYWAVSEELLPNSGHGPDGEVPKDKEGGVFDLGPFIVDLITFTEGSGRSPRYALWFCVGESWPQDQPWTKRLVMVKVVPTCLRALVEMARVGGASSLANTVDLHISNSHPLSLTSDQYKAYLQDLVEGMDFQGPGES
modifications: phosphorylated in vitro by GST-mTBK1; the phosphorylated residues are not listed
B2: phosphorylated full-length human IRF-3 K313A (natural protein, UniProt Q14653 1-427, looked up)
chain: B1 chain with K313A, A388E
modifications: phosphorylated in vitro by GST-mTBK1; the phosphorylated residues are not listed
B3: phosphorylated full-length human IRF-3 S339A (natural protein, UniProt Q14653 1-427, looked up)
chain: B1 chain with S339A, A388E
modifications: phosphorylated in vitro by GST-mTBK1; the phosphorylated residues are not listed
B4: phosphorylated full-length human IRF-3 S396A (natural protein, UniProt Q14653 1-427, looked up)
chain: B1 chain with A388E, S396A
modifications: phosphorylated in vitro by GST-mTBK1; the phosphorylated residues are not listed
B5: phosphorylated full-length human IRF-3 R285A/K313A (natural protein, UniProt Q14653 1-427, looked up)
chain: B1 chain with R285A, K313A, A388E
modifications: phosphorylated in vitro by GST-mTBK1; the phosphorylated residues are not listed
B6: phosphorylated full-length human IRF-3 H290A/K313A (natural protein, UniProt Q14653 1-427, looked up)
chain: B1 chain with H290A, K313A, A388E
modifications: phosphorylated in vitro by GST-mTBK1; the phosphorylated residues are not listed
B7: phosphorylated full-length human IRF-3 H290A (natural protein, UniProt Q14653 1-427, looked up)
chain: B1 chain with H290A, A388E
modifications: phosphorylated in vitro by GST-mTBK1; the phosphorylated residues are not listed
B8: phosphorylated full-length human IRF-3 H288A (natural protein, UniProt Q14653 1-427, looked up)
chain: B1 chain with H288A, A388E
modifications: phosphorylated in vitro by GST-mTBK1; the phosphorylated residues are not listed
B9: phosphorylated full-length human IRF-3 R285A (natural protein, UniProt Q14653 1-427, looked up)
chain: B1 chain with R285A, A388E
modifications: phosphorylated in vitro by GST-mTBK1; the phosphorylated residues are not listed
B10: phosphorylated full-length human IRF-3 H288A/H290A/K313A (natural protein, UniProt Q14653 1-427, looked up)
chain: B1 chain with H288A, H290A, K313A, A388E
modifications: phosphorylated in vitro by GST-mTBK1; the phosphorylated residues are not listed

How the values were obtained:
SEC = biological target: the molecule itself; assay: SEC
native gel or EMSA = biological target: the molecule itself; assay: native gel or EMSA

| Protein | binding result (SEC) | binding result (native gel or EMSA) |
| --- | --- | --- |
| B1 | binds | – |
| B2 | binds | – |
| B3 | binds | – |
| B4 | – | binds |
| B5 | binds | – |
| B6 | binds | – |
| B7 | binds | – |
| B8 | binds | – |
| B9 | binds | – |
| B10 | binds | – |
